Experimental data published in patent publication US20070087001A1 (CENTER FOR MOLECULAR MEDICINE AND IMMUNOLOGY, published 2007).
Ends that are not written are not given here.

Assays:
[1] = molecular target: T1, Recombinant human placenta growth factor-2 (PlGF-2) (human) (UniProt P49763); experiment: cell-based or functional assay
T1 sequence (looked up): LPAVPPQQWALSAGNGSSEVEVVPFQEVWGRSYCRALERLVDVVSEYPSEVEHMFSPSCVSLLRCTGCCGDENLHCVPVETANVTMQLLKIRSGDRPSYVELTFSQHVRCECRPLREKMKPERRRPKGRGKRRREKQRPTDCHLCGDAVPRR

[2] = molecular target: T1, Recombinant human placenta growth factor-2 (PlGF-2) (human); experiment: phage ELISA on PlGF-coated plates, anti-M13-HRP detection; phage library background 0.003
[3] = molecular target: T2, Recombinant human placenta growth factor-2 (PlGF-2) (human, UniProt P49763-3 19-170, limits assumed); experiment: ELISA, free FLAG-tagged peptide on PlGF-coated wells
T2 construct: Bought protein; also called rhuPlGF
T2 sequence (looked up): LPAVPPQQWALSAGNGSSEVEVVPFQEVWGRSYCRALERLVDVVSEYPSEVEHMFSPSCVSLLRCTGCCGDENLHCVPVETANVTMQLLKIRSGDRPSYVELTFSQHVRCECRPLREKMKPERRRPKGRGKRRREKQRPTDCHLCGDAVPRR

[4] = molecular target: T3, Recombinant human Flt-1 fusion protein (human, UniProt P17948 27-756); experiment: ELISA, free FLAG-tagged peptide on Flt-1-coated wells
T3 construct: Bought fusion protein coated on plates at 10 µg/ml; also called VEGFR1; VEGF receptor I
T3 sequence (P17948 27-756): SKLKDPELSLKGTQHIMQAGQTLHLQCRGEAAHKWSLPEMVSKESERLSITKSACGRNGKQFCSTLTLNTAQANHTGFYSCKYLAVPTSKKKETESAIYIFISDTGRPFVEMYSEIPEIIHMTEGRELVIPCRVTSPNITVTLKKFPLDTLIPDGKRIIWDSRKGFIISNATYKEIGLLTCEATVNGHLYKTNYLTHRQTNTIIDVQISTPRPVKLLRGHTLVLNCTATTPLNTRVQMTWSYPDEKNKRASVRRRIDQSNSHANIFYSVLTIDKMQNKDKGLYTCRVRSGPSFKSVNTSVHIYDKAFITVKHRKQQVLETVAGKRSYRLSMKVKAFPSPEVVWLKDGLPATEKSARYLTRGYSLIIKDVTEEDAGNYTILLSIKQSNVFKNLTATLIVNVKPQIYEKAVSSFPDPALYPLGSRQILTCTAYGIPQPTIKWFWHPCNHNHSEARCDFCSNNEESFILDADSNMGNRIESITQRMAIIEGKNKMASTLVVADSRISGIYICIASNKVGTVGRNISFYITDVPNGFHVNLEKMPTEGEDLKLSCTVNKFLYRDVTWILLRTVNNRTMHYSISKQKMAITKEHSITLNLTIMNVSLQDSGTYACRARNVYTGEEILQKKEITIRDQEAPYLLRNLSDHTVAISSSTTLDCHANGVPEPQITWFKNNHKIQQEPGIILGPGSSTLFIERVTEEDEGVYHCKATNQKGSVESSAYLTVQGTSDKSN

[5] = molecular target: T2, Recombinant human placenta growth …; experiment: cell-based or functional assay
[6] = molecular target: T2, Recombinant human placenta growth …; experiment: cell-based or functional assay; remark: listed apart in the source
[7] = molecular target: T4, Recombinant human VEGF 165 (human, UniProt P15692-4 27-191); experiment: ELISA-based binding assay
T4 construct: Bought protein
T4 sequence (P15692 other isoform, or with tags, fused parts or gaps limits assumed): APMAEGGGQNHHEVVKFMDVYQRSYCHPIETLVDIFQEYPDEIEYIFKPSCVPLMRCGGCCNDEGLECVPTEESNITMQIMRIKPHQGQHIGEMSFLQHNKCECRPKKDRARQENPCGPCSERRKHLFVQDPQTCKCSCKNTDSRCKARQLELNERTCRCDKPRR

[8] = molecular target: T3, Recombinant human Flt-1 fusion protein; experiment: ELISA-based binding assay
[9] = molecular target: T4, Recombinant human VEGF 165; experiment: ELISA, FLAG-tagged free peptide on VEGF165-coated wells, anti-FLAG detection

For “Human recombinant soluble Flt-1 (sFlt-1) (from UniProt P17948 27-756) (receptor)”, the Block of the stimulatory effect of PlGF on motility, MCF-7 [1] was 67%, the Block of the stimulatory effect of PlGF on motility, MDA-MB-231 [1] was 55% and the Migrating cells (wound-healing assay, MCF-7, PlGF 2 nM + Flt-1 2 nM) (cells/100x field) [1] was 10.4. The Migrating cells (wound-healing assay, MDA-MB-231, PlGF 2 nM + Flt-1 2 nM) (cells/100x field) [1] was 19.1, the Migrating cells (wound-healing assay, MDA-MB-468, PlGF 2 nM + Flt-1 2 nM) (cells/100x field) [1] was 7.8 and the Relative activity (wound-healing assay, MCF-7) (relative to PlGF-only = 100) [1] was 47. It also gave a Relative activity (wound-healing assay, MDA-MB-231) (relative to PlGF-only = 100) [1] of 45 and a Relative activity (wound-healing assay, MDA-MB-468) (relative to PlGF-only = 100) [1] of 53.

B1: Phage BP1 (BP1 peptide displayed on M13 phage) (peptide, not shown: large carriers; small tags and cut ends)
peptide: SHRYRLAIQLHASDSSSSCV
modifications: also: displayed on M13 phage, fused to pIII coat protein, spacer and fusion end not given here
B1 gave an absorbance (410 nm) [2] of 0.024 A410.

RMPYSEHSAPLGDYKDDDDK (peptide, not shown: small tags and cut ends, also: linker between peptide and FLAG epitope, sequence not given here) [Peptide BP4 synthesized with a linker and a C-terminal FLAG epitope]: no binding (tested: 50 µM) [3]; no binding [4].

QEAFNRLTSRMHDYKDDDDK (peptide, not shown: small tags and cut ends, also: linker between peptide and FLAG epitope, sequence not given here) [Peptide BP3 synthesized with a linker and a C-terminal FLAG epitope]: no binding (tested: 50 µM) [3]; no binding [4].

SHRYRLAIQLHASDSSSSCV [Binding Peptide 1 (BP1), synthetic peptide] was tested, and the “Relative activity (wound-healing assay, MCF-7)” value [5] was 45 relative to PlGF-only = 100, the “Relative activity (wound-healing assay, MDA-MB-231)” value [5] was 32 relative to PlGF-only = 100 and the “Relative activity (wound-healing assay, MDA-MB-468)” value [5] was 97 relative to PlGF-only = 100. The “Average fold-change in invading cells vs untreated (MCF-7, PlGF 0.2 nM + BP1 2 µg/ml)” value [6] was 0.3 fold vs untreated, the “Average fold-change in invading cells vs untreated (MDA-MB-231, PlGF 0.2 nM + BP1 2 µg/ml)” value [6] was 1.3 fold vs untreated and the “Average fold-change in invading cells vs untreated (MDA-MB-468, PlGF 0.2 nM + BP1 2 µg/ml)” value [6] was 0.6 fold vs untreated.

For SAAYALAIQLAASASSSSCV [Control peptide CPA (BP1 with A substituted for the H, R and D residues)], the binding result [7] was “binds”, the “Relative activity (wound-healing assay, MDA-MB-231)” value [5] was 106 relative to PlGF-only = 100 and the “Relative activity (wound-healing assay, MDA-MB-468)” value [5] was 147 relative to PlGF-only = 100. The “Average fold-change in invading cells vs untreated (MCF-7, PlGF 0.2 nM + CPA 2 µg/ml)” value [6] was 1 fold vs untreated, the “Average fold-change in invading cells vs untreated (MDA-MB-231, PlGF 0.2 nM + CPA 2 µg/ml)” value [6] was 4.9 fold vs untreated and the “Average fold-change in invading cells vs untreated (MDA-MB-468, PlGF 0.2 nM + CPA 2 µg/ml)” value [6] was 1.2 fold vs untreated.

Work on SHRYRLAIQLHASDSSSSCVDYKDDDDK (peptide, not shown: small tags and cut ends, also: linker between peptide and FLAG epitope, sequence not given here, detected by probing for FLAG) [Peptide BP1 (Binding Peptide 1) synthesized with a linker and a C-terminal FLAG epitope] yielded a fold over background [8] of 10 fold over background and an A490 [9] of 0.299 A490.
